In PMC6563307:

Tests used:
[1] = molecular target: Vip3Ab1 (full length, not digested) (Bacillus thuringiensis); experiment: SEC; analytical size exclusion chromatography of the full-length protein incubated overnight without midgut fluid, pH 10.0; 6 µL injected at 150 µg/mL; size estimated from molecular weight standards
[2] = molecular target: Vip3Ab1 processed by midgut fluid (~65 kDa and ~20 kDa products that remain associated) (Bacillus thuringiensis); experiment: SEC; analytical size exclusion chromatography after overnight digestion at pH 10.0, 30 °C, with S. frugiperda or S. eridania midgut fluid; 6 µL injected at 150 µg/mL; size estimated from molecular weight standards
[3] = molecular target: Vip3Ab1-740 processed by midgut fluid (~65 kDa and ~20 kDa products that remain associated) (Bacillus thuringiensis); experiment: as above
[4] = molecular target: Vip3Ab1-740 (full length, not digested) (Bacillus thuringiensis); experiment: SEC; analytical size exclusion chromatography of the full-length protein incubated overnight without midgut fluid, pH 10.0; 6 µL injected at 150 µg/mL; size estimated from molecular weight standards

Vip3Ab1 (full length, not digested) (natural protein)
stoichiometry N [1]: 4

Vip3Ab1 processed by midgut fluid (~65 kDa and ~20 kDa products that remain associated) (complex)
stoichiometry N [2]: 4

Vip3Ab1-740 processed by midgut fluid (~65 kDa and ~20 kDa products that remain associated) (complex)
stoichiometry N [3]: 4

Vip3Ab1-740 (full length, not digested)
stoichiometry N [4]: 4
